# Data: publication PMC12190498, “Improving the Catalytic Activity and Thermostability of FAST-PETase with a Multifunctional Short Peptide” (Biomolecules, 2025)
# Substrate: CCCC(=O)Oc1ccc([N+](=O)[O-])cc1
# Assay: purified protein
# Type: biochemical, Pseudideonella sakaiensis
# [1] = 50 mM potassium phosphate pH 7.5, 50°C or 55°C (50°C is the optimum of this enzyme)
# [2] = 50 mM potassium phosphate pH 7.5, 50°C or 55°C (55°C is the optimum of this enzyme)
Protein,Km [1],kcat [1],kcat/Km [1],Km [2],kcat [2],kcat/Km [2]
"FAST-PETase (Pseudideonella sakaiensis; D186H/N233K/R224Q/R280A/S121E) (protein, FAST-PETase, C-terminal 6xHis, pET28a, E. coli Origami 2(DE3), Ni-NTA) QTNPYARGPNPTAASLEASAGPFTVRSFTVSRPSGYGAGTVYYPTNAGGTVGAIAIVPGYTARQSSIKWWGPRLASHGFVVITIDTNSTLDQPESRSSQQMAALRQVASLNGTSSSPIYGKVDTARMGVMGWSMGGGGSLISAANNPSLKAAAPQAPWHSSTNFSSVTVPTLIFACENDSIAPVNSSALPIYDSMSQNAKQFLEIKGGSHSCANSGNSNQALIGKKGVAWMKRFMDNDTRYSTFACENPNSTAVSDFRTANCS",880 ± 160 µM,0.724 ± 0.0532 s⁻¹,824 ± 112 M⁻¹ s⁻¹,–,–,–
"FAST-PETase-S1v1 (Pseudideonella sakaiensis; D186H/N233K/R224Q/R280A/S121E) (protein, artificial peptide S1v1 (AEAEAHAH)2 fused to C-terminus via PT-linker …, C-terminal 6xHis, E. coli Origami 2(DE3), Ni-NTA) QTNPYARGPNPTAASLEASAGPFTVRSFTVSRPSGYGAGTVYYPTNAGGTVGAIAIVPGYTARQSSIKWWGPRLASHGFVVITIDTNSTLDQPESRSSQQMAALRQVASLNGTSSSPIYGKVDTARMGVMGWSMGGGGSLISAANNPSLKAAAPQAPWHSSTNFSSVTVPTLIFACENDSIAPVNSSALPIYDSMSQNAKQFLEIKGGSHSCANSGNSNQALIGKKGVAWMKRFMDNDTRYSTFACENPNSTAVSDFRTANCS",–,–,–,1220 ± 180 µM,1.36 ± 0.0918 s⁻¹,1110 ± 138 M⁻¹ s⁻¹
"S1v1-FAST-PETase (Pseudideonella sakaiensis; D186H/N233K/R224Q/R280A/S121E) (protein, artificial peptide S1v1 (AEAEAHAH)2 fused to N-terminus via PT-linker …, C-terminal 6xHis, E. coli Origami 2(DE3), Ni-NTA) QTNPYARGPNPTAASLEASAGPFTVRSFTVSRPSGYGAGTVYYPTNAGGTVGAIAIVPGYTARQSSIKWWGPRLASHGFVVITIDTNSTLDQPESRSSQQMAALRQVASLNGTSSSPIYGKVDTARMGVMGWSMGGGGSLISAANNPSLKAAAPQAPWHSSTNFSSVTVPTLIFACENDSIAPVNSSALPIYDSMSQNAKQFLEIKGGSHSCANSGNSNQALIGKKGVAWMKRFMDNDTRYSTFACENPNSTAVSDFRTANCS",–,–,–,860 ± 150 µM,0.581 ± 0.0392 s⁻¹,679 ± 72.2 M⁻¹ s⁻¹
